These results are taken from publication PMC10798858.

This assay has as its target Laa1-myc (budding yeast (S. cerevisiae)) (UniProt P39526). Briefly: co-IP.
Chain of UniProt P39526 (P39526 whole entry, the tested form may be a part): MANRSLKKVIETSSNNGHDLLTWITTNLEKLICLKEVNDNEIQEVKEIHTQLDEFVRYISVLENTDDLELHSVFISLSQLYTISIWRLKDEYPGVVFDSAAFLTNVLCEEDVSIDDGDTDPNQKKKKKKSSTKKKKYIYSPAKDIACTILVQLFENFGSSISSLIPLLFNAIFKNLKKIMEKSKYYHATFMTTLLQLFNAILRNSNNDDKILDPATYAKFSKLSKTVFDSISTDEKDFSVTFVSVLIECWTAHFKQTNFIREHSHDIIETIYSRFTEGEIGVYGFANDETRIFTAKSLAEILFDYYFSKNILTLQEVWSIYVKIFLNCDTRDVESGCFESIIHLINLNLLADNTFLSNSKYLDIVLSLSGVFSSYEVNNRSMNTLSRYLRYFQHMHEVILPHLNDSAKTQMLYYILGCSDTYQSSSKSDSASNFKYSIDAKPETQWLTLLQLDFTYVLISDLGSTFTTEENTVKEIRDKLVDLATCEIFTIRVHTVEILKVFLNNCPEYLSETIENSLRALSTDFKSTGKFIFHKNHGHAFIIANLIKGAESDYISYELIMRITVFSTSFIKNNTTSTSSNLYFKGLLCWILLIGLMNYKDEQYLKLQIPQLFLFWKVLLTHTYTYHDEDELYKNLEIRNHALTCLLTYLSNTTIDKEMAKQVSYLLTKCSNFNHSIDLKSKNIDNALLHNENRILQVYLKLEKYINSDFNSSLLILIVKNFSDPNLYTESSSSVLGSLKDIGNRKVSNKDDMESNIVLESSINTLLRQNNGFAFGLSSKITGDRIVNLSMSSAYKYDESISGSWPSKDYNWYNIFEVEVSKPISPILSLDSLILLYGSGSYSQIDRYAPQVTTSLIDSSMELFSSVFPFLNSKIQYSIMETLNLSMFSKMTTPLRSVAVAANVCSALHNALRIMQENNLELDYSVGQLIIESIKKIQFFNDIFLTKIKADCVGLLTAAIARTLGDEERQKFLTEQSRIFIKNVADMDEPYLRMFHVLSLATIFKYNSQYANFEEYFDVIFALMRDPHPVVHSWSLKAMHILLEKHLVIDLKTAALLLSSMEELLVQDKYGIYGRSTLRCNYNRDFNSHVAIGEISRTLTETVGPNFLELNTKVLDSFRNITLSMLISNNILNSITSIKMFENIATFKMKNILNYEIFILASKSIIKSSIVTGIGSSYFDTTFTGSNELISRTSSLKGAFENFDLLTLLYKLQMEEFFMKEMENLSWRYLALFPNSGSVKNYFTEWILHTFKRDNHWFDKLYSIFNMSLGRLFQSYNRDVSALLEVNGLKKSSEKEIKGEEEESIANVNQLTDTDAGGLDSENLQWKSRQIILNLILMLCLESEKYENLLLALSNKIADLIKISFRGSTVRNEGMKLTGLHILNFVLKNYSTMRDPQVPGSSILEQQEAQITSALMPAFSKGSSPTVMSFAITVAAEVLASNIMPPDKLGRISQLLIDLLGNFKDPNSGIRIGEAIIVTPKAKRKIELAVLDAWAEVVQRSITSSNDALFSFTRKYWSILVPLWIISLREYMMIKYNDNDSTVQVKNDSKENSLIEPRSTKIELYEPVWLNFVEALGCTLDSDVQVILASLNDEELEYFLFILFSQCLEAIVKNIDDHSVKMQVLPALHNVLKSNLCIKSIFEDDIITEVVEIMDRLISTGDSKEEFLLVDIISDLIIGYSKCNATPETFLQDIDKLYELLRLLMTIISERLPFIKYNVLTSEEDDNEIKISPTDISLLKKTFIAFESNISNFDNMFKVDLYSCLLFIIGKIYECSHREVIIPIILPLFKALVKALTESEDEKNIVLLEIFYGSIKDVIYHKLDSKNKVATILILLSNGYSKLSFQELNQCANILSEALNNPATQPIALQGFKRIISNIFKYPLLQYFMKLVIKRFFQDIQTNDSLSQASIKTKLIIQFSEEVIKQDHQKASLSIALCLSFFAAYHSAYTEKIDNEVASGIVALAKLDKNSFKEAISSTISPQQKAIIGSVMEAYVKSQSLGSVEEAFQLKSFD

Substance “Lft1-ΔHR1 tagged with 6-HIS-TEV-3FLAG (HTF) (from UniProt Q03703 1-340) (natural protein)” gave an interaction with Laa1, percent of wild type (% of wild-type levels) of 60.
Then “Lft1-ΔHR3 tagged with 6-HIS-TEV-3FLAG (HTF) (from UniProt Q03703 1-340) (natural protein)”, with 60.
